Reference: patent US20240011046A1 (UNIVERSITY OF PITTSBURGH OF THE COMMONWEALTH SYSTEM OF …, published 2024)

Key:
[1] = biological target: T1, TGF-β type II receptor (TβRII) (UniProt P37173 38-159); assay: ITC: TβRII injected into the monomer, three replicate titrations globally fit to a 1:1 binding model (reference control)
T1 construct: Soluble protein: injected in ITC, and 2 µg run on the native gel; also called TGF-β receptor II; transforming growth factor-β type 2 receptor
Experimental: (§1) In order to evaluate the ability of the mmTGF-β2-7M variants described herein (mmTGF-β2-7M2R (SEQ ID NO: 9), mmTGF-β2-2M-De18-17 (SEQ ID NO: 10), and mmTGF-β2-7M-PRDC (SEQ ID NO: 11)) to bind TβRII, isothermal titration calorimetry (ITC) and native gels were used. The ITC binding experiments were performed by injecting increasing amounts of TβRII into mmTGF-β2-7M2R (SEQ ID NO: 9) or mmTGF-β2-2M-De18-17 (SEQ ID NO: 10), with mmTGF-β2-7M (SEQ ID NO: 7) used a reference control. These titrations yielded readily detectable isotherms with a large negative enthalpy and a near 1:1 binding stoichiometry (FIG. 8).

[2] = biological target: TGF-β receptor II (TβRII) on the HEK-293 TGF-β CAGA-Luc reporter cells (UniProt P37173 23-567, limits assumed); assay: cell-based or functional assay
[3] = biological target: T1, TGF-β type II receptor (TβRII); assay: ITC: TβRII injected into the monomer, three replicate titrations globally fit to a 1:1 binding model
Experimental: as §1

T1 sequence (P37173 38-159 limits assumed): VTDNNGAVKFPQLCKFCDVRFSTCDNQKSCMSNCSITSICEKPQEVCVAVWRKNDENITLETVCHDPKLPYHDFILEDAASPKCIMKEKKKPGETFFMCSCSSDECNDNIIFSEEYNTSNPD
Sequence of TGF-β receptor II (TβRII) on the HEK-293 TGF-β CAGA-Luc reporter cells (P37173 23-567 limits assumed): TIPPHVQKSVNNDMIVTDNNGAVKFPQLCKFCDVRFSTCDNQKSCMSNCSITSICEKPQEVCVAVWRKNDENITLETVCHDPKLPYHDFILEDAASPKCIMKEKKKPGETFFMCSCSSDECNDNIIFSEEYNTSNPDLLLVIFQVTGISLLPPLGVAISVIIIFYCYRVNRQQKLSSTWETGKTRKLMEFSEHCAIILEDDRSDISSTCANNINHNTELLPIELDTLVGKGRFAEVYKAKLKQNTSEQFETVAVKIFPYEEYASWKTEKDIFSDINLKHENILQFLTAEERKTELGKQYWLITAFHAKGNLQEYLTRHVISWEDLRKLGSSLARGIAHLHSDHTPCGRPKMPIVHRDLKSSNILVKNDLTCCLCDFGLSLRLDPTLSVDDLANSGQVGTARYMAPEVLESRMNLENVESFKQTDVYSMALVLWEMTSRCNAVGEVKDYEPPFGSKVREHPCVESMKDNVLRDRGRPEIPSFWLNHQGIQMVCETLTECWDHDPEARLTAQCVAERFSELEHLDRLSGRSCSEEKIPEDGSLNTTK

B1: mmTGF-β2-7M (designed binder)
chain: ALDAAYCFRNVQDNCCLRPLYIDFRKDLGWKWIHEPKGYNANFCAGACPYRASKSPSCVSQDLEPLTIVYYVGRKPKVEQLSNMIVKSCKCS
notes: also called dnTGFβ2^mm; mini-monomer
Kd [1]: 60.5 nM | HEK-293 CAGA-Luc TGF-β reporter assay, inhibition of signaling stimulated by 10 pM TGF-β3, IC50 [2]: 58.2 nM

B2: mmTGF-β2-7M2R (designed binder)
chain: ALDAAYCFRNVQDNCCLRPLYIDFRKDLGWKWIHEPKGYNANFCAGACPYRASKSPRCRSQDLEPLTIVYYVGRKPKVEQLSNMIVKSCKCS
notes: Made to reduce aggregation
HEK-293 CAGA-Luc TGF-β reporter assay, inhibition of signaling stimulated by 10 pM TGF-β3, IC50 [2]: 53.3 nM | Kd [3]: 75.1 nM

B3: mmTGF-β2-2M-Del8-17 (designed binder)
chain: ALDAAYVFRNVQDNCALRPLYIDFRRDLGWKWIHEPKGYNANFCAGACPYRASKSPSCVSQDLEPLTILYYIGRTPKIEQLSNMIVKSCKCS
notes: The 8-17 disulfide is eliminated; also called mmTGF-β2-2M-De18-17; mmTGF-β2-2M-De18_17
HEK-293 CAGA-Luc TGF-β reporter assay, inhibition of signaling stimulated by 10 pM TGF-β3, IC50 [2]: 111 nM | Kd [3]: 80.1 nM

B4: mmTGF-β2-7M-PRDC (designed binder)
chain: KEVLASSQEALVVTERKYLKSDWCKLRPLYIDFRKDLGWKWIHEPKGYNANFCYGQCNSFYIPRHVKKEEDSFQSSAFCVSQDLEPLTIVYYVGRKPKVEQLSNMIVKSCRCMSV
HEK-293 CAGA-Luc TGF-β reporter assay, IC50 relative to mmTGF-β2-7M [2]: ~5 fold | HEK-293 CAGA-Luc TGF-β reporter assay, inhibition of signaling stimulated by 10 pM TGF-β3, IC50 [2]: 282 nM
